The record followed here is PMC2788865 (The Journal of Biological Chemistry, 2009).

The target of this assay is Lys^75-FL-calmodulin (FL-CaM) (human, UniProt P0DP23 1-149, 5-(4,6-dichlorotriazinyl)aminofluorescein (FL) on Lys75). The experiment in a line: fluorescence polarisation. On the technique in general: In fluorescence polarisation assays a small probe gives low polarisation when free and higher when bound to something large.

B1: Ca^2+/calmodulin-dependent protein kinase IV (CaMKIV) (enzyme)
chain: MLKVTVPSCPSSPCSSVTSSTENLVPDYWIDGSKRDPLSDFFEVESELGRGATSIVYRCKQKGTQKPYALKVLKKTVDKKIVRTEIGVLLRLSHPNIIKLKEIFETPTEISLVLELVTGGELFDRIVEKGYYSERDAADAVKQILEAVAYLHENGIVHRDLKPENLLYATPAPDAPLKIADFGLSKIVEHQVLMKTVCGTPGYCAPEILRGCAYGPEVDMWSVGIITYILLCGFEPFYDERGDQFMFRRILNCEYYFISPWWDEVSLNAKDLVKKLIVLDPKKRLTTFQALQHPWVTGKAANFVHMDTAQKKLQEFNARRKLKAAVKAVVASSRLGSASSSHTNIQESNKASSEAQPAQDGKDKTDPLENKMQAGDHEAAKAAADETMKLQSEEVEEEEGVKEEEEEEEEEEETSRMVPQEPEDRLETDDQEMKRNSEETLKSVEEEMDPKAEEEAAAVGLGVPPQQDAILPEY
Take B1: the binding result was “binds”.
